Experiment in all cases: purified protein
Holding throughout (details): 0.1 mM NADPH, 100 mM Tris pH 7.5, 50 °C, 2% p-dioxane

Substrate in series [1]: CCCCCCC(C)=O
Substrate in series [2]: CCCCCC(C)=O
Substrate in series [3]: CCC(=O)c1ccccc1
Substrate in series [4]: CC(=O)c1ccccc1
Substrate in series [5]: CC(=O)CCc1ccccc1
Substrate in series [6]: CC(=O)c1cccc(O)c1
The class given is biochemical, Tepidiforma thermophila.

Substrate in series [7]: CC(=O)c1ccc(O)cc1
The class given is biochemical, Tepidiforma thermophila.

As a reminder, the Km is the substrate concentration at which the rate is half of its maximum. The term kcat denotes the maximal rate divided by the concentration of active sites.

B1: ssnBVMO (Tepidiforma thermophila) (protein)
chain: MTSNAPQSFDSIIVGAGFAGLYQLIRLRRAGFSARVIEAGDNVGGTWYWNRYPGARCDIESLQYQYAFDPGLAKEWRWTERYATQPEILRYIEFVADRYDLRRDIQFSTRVTAAHYDEAAARWTVHTDRGDLYSCRYLVMATGCLSVPKTPEVPGIETFEGESYHTGAWPHEGVDFTGKRVAVIGTGSSAIQSIPIIARQAAHLTVFQRTPNFSVPAHNYFLDEEQWRAAAERIAELRAEARTTSAGITGLPLNDVSALAVSEEERRREYERRWAMGGFAIGGAFNDIAINPDANETAAEFVRQKIREIVQDPETAEALCPRDYPFGTKRLCVDIAYYETFNRPNVKLVSIRDNPIAAITPKGVRLENGDEYEFDAIVYATGFDAMTGALLRIDIRGRDGLTLREKWEHGPRTYLGIQVAGFPNMFTITGPGSPSVLSNMIVSIEQHVDWVTDCLEYLRERDLATIEASPAAEDAWVNHVNEVANLTLYPRANSWYIGANVPGKPRVFMPYVGGVGAYAQKCAEVAANGYEGFILQPEPAALSR
With B1, the Km in series [1] came to 0.0201 ± 0.0096 mM; in series [2], 3.7 ± 1.5 µM; in series [3], 0.373 ± 0.039 mM; in series [4], 2.52 ± 0.61 mM; in series [5] it was 0.022 ± 0.012 mM; in series [6] it was 2.5 ± 2.0 mM. Further, the Michaelis constant (Km) in series [7] was determined as 1.28 ± 0.18 mM. Besides, the kcat in series [1] turned out to be 0.671 ± 0.076 s⁻¹; in series [2], 0.455 ± 0.038 s⁻¹; in series [3], 0.152 ± 0.003 s⁻¹; in series [4], 0.335 ± 0.018 s⁻¹; in series [5] it was 0.76 ± 0.10 s⁻¹; in series [6], 0.127 ± 0.038 s⁻¹. For the same protein, the catalytic constant (kcat) in series [7] stood at 0.455 ± 0.026 s⁻¹.

B2: PTDH-L1-ssnBVMO (Tepidiforma thermophila) (protein)
chain: MTSNAPQSFDSIIVGAGFAGLYQLIRLRRAGFSARVIEAGDNVGGTWYWNRYPGARCDIESLQYQYAFDPGLAKEWRWTERYATQPEILRYIEFVADRYDLRRDIQFSTRVTAAHYDEAAARWTVHTDRGDLYSCRYLVMATGCLSVPKTPEVPGIETFEGESYHTGAWPHEGVDFTGKRVAVIGTGSSAIQSIPIIARQAAHLTVFQRTPNFSVPAHNYFLDEEQWRAAAERIAELRAEARTTSAGITGLPLNDVSALAVSEEERRREYERRWAMGGFAIGGAFNDIAINPDANETAAEFVRQKIREIVQDPETAEALCPRDYPFGTKRLCVDIAYYETFNRPNVKLVSIRDNPIAAITPKGVRLENGDEYEFDAIVYATGFDAMTGALLRIDIRGRDGLTLREKWEHGPRTYLGIQVAGFPNMFTITGPGSPSVLSNMIVSIEQHVDWVTDCLEYLRERDLATIEASPAAEDAWVNHVNEVANLTLYPRANSWYIGANVPGKPRVFMPYVGGVGAYAQKCAEVAANGYEGFILQPEPAALSR
As for B2, the Michaelis constant (Km) turned out to be 0.0257 ± 0.0025 mM in series [1]; 6.3 ± 3.1 µM in series [2]; 0.70 ± 0.14 mM in series [3]; 3.60 ± 0.79 mM in series [4]; 1.59 ± 0.27 mM in series [6]; 0.76 ± 0.12 mM in series [7]. Also, the catalytic constant (kcat) in series [1] came out at 0.536 ± 0.078 s⁻¹; in series [2], 0.61 ± 0.11 s⁻¹; in series [3] it was 0.371 ± 0.057 s⁻¹; in series [4] it was 0.459 ± 0.081 s⁻¹; in series [6], 0.120 ± 0.023 s⁻¹; in series [7], 0.301 ± 0.061 s⁻¹.
